Assay [1] addresses T1, human MIF (macrophage migration inhibitory factor), recombinant (human, UniProt P14174 2-115).
T1 construct: The background says that MIF crystallises as a trimer; In the potency rows the target is the endogenous MIF of human U937 cells; also called GIF
Description: SPR, Biacore 3000, RAM9 amine-coupled to CM5 chip, MIF injected at 40-480 nM, 1:1 Langmuir fit with mass transfer. For orientation: Surface plasmon resonance follows binding to a sensor surface in real time, without labels.

In assay [2] the target is T1, human MIF (macrophage migration …). In words: cell-based or functional assay.

T1 sequence (P14174 2-115 limits assumed): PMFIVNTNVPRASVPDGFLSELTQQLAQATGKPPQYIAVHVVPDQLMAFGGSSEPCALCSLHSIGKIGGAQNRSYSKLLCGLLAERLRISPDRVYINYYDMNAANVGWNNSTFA

B1: RAM9 (antibody, human IgG1, kappa, V domains shown)
VH: EVQLLESGGGLVQPGGSLRLSCAASGFTFSIYSMNWVRQAPGKGLEWVSSIGSSGGTTYYADSVKGRFTISRDNSKNTLYLQMNSLRAEDTAVYYCAGSQWLYGMDVWGQGTTVTVSS
VL: DIQMTQSPSSLSASVGDRVTITCRSSQRIMTYLNWYQQKPGKAPKLLIFVASHSQSGVPSRFRGSGSETDFTLTISGLQPEDSATYYCQQSFWTPLTFGGGTKVEIKR
notes: also deposited as plasmids DSM 25860 (hc) and DSM 25859 (lc); also called anti-MIF antibody RAM9; anti-oxMIF antibody
In the case of B1, the Kd – broadly, the concentration at which binding is half-saturated – in assay [1] amounted to 1.7 nM. Besides, the “Potency (IC 50); inhibition of random migration of human U937 cells, Transwell chemokinesis assay” value in assay [2] was found to be 1 nM.

These data come from patent EP3277718B1 (Baxalta GmbH, dated 2021).
